Laboratory results published in patent US9304127B2, “Anti-adrenomedullin (ADM) antibody or anti-ADM antibody fragment for use in therapy” (ADRENOMED AG, priority 2011, dated 2016).

Molecular target: T1, hADM (Homo sapiens, UniProt P35318)
T1 construct: comprises the amino acids 95 to 146 of pre-proADM; host or cells: added to human citrate plasma
T1 sequence (P35318 95-146): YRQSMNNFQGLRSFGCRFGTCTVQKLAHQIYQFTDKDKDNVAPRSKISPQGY
Assay: Stability of human Adrenomedullin in human citrate plasma (hADM immunoassay)
Type: in vitro ADME
Details: 24° C., hADM 10 nM, NT-H 100 μg/ml
Experimental: The stabilizing effect of human ADM by human ADM antibodies was tested using a hADM immunoassay.
The technology used was a sandwich coated tube luminescence immunoassay, based on Acridinium ester labelling.
The final concentration was approx. 800.000 relative light units (RLU) of labelled compound (approx. 20 ng labeled antibody) per 200 μL.
After blocking with 5% bovine serum albumine, the tubes were washed with PBS, pH 7.4 and vacuum dried.
The assay was calibrated, using dilutions of hADM
(BACHEM AG, Switzerland) in 250 mmol/L NaCl, 2 g/L Triton X-100, 50 g/L Bovine Serum Albumin, 20 tabs/L Protease Inhibitor Cocktail (Roche Diagnostics AG, Switzerland))
Unbound tracer was removed by washing 5 times (each 1 ml) with washing solution (20 mM PBS, pH 7.4, 0.1% Triton X-100).
Human ADM was diluted in human Citrate plasma (final concentration 10 nM) and incubated at 24° C. At selected time points, the degradation of hADM was stopped by freezing at −20° C. […] The remaining hADM was quantified by using the hADM immunoassay described above.

B1: NT-H: murine monoclonal antibody raised against human ADM region 1-21 (SEQ ID: 15) (antibody, V domains shown)
VH: QVQLQQSGAELMKPGASVKISCKATGYTFSRYWIEWVKQRPGHGLEWIGEILPGSGSTNYNEKFKGKATITADTSSNTAYMQLSSLTSEDSAVYYCTEGYEYDGFDYWGQGTTLTVSS
VL: DVLLSQTPLSLPVSLGDQATISCRSSQSIVYSNGNTYLEWYLQKPGQSPKLLIYRVSNRFSGVPDRFSGSGSGTDFTLKISRVEAEDLGVYYCFQGSHIPYTFGGGTKLEIK
- half life of hADM in the presence of NT-H: 18.3 h
